Measurements: patent US20140286957A1 (Teva, published 2014)
Like-named read-outs stand apart in the source and are kept apart here.

Experiments:
Human CD1d on cells [1] = target: T1, Human CD1d on cells (human, UniProt P15813 20-335); experiment: cell-based or functional assay
T1 sequence (looked up): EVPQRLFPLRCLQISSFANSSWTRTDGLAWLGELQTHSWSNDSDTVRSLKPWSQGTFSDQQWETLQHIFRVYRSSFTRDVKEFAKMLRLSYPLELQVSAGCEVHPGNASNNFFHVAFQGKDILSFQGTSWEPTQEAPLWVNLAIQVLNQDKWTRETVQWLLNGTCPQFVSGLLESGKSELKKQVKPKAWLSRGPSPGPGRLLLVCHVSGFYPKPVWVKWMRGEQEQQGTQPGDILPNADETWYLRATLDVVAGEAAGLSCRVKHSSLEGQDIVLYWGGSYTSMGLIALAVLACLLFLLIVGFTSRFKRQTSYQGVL

Human CD1d on cells [2] = target: T1, Human CD1d on cells; experiment: cell-based or functional assay; remark: listed apart in the source
Human CD1d/β2M [3] = target: T2, Human CD1d/β2M (human, UniProt P15813 20-301; P61769 21-119); experiment: SPR
T2 construct: also called hCD1d; recombinant human CD1d

Human CD1d on cells [4] = target: T1, Human CD1d on cells; experiment: cell-based or functional assay; remark: listed apart in the source
Human CD1d on cells [5] = target: T1, Human CD1d on cells; experiment: cell-based or functional assay; remark: listed apart in the source
Human CD1d on cells [6] = target: T1, Human CD1d on cells; experiment: cell-based or functional assay; remark: listed apart in the source
Human CD1d on cells [7] = target: T1, Human CD1d on cells; experiment: cell-based or functional assay; remark: listed apart in the source
Human CD1d on cells [8] = target: T1, Human CD1d on cells; experiment: cell-based or functional assay; remark: listed apart in the source
Human CD1d/β2M [9] = target: T2, Human CD1d/β2M; experiment: direct ELISA, plate coated with 1 µg/mL CD1d construct, HRP anti-human IgG (H+L) detection
Mouse CD1d = target: T3, Mouse CD1d (mouse, UniProt P11609 22-305); experiment: as above
T3 construct: Murine CD1d extracellular domain construct, HEK-293E; also called mCD1d; murine CD1d
T3 sequence: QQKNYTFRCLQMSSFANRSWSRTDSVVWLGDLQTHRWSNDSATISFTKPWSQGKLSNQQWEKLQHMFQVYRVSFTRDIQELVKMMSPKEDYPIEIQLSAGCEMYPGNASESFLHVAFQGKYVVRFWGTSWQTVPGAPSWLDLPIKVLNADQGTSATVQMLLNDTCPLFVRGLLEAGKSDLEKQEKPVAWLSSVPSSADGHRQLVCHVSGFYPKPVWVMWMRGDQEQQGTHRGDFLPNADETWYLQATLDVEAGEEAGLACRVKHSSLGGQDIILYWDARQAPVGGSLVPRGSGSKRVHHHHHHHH

mCD1dhu = target: T4, mCD1dhu (mouse with human segments); experiment: as above
T4 chain: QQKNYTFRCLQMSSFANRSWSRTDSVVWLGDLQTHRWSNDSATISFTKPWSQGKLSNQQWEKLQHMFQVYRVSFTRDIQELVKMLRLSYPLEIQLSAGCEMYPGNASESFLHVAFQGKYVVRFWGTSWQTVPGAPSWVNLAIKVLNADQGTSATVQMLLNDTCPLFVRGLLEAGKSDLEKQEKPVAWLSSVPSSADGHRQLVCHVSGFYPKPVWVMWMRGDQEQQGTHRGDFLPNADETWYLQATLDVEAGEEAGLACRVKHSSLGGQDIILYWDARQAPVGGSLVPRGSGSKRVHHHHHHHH

B1: 401.11.158 (antibody, V domains shown)
VH: QVQLVGSGGGLVKPGRSLRLSCAASGFTFDDYAMHWVRQAPGKGLEWVATIIWNSAIIGYADSVKGRFIVSRDNAKNSLYLQMNSLRAEDTALYYCAKDMCSSGGCPDGYFDSWGQGTLVTVSS
VL: DIQMTQSPSSVSASVGDRVTITCRASQHISSWLAWYQQKPGKAPKLLIYAASSLQSGVPSRFSGSGSGTDFTLTISSLQPEDFATYYCQQANRFPLTFGGGTKLEIKR
notes: IgG4 (S228P); biotinylated or Pacific Blue labelled in some assays
Human CD1d on cells [1]
  NKT IFN-γ EC50 (THP-1): 2.6 ng/mL
  NKT IFN-γ EC50 (moDC): 3 ng/mL
  NKT IL-4 EC50 (THP-1): 2.2 ng/mL
  NKT IL-4 EC50 (moDC): 1.16 ng/mL
  NKT IL-13 EC50 (THP-1): 4.35 ng/mL
Human CD1d on cells [2]
  IFN-γ EC50 (C24:1 βGluCer, moDC): 0.64 ng/mL
  IL-4 EC50 (C24:1 βGluCer, moDC): 0.682 ng/mL
  IL-5 EC50 (C24:1 βGluCer, moDC): 0.868 ng/mL
  IL-13 EC50 (C24:1 βGluCer, moDC): 1.44 ng/mL
  TNF-α EC50 (C24:1 βGluCer, moDC): 0.842 ng/mL
Human CD1d/β2M [3]
  Kd: 0.189 nM
Human CD1d on cells [4]
  NKT IFN-γ EC50 (moDC): 8.16 ng/mL
  NKT IL-4 EC50 (moDC): 2.19 ng/mL
  NKT IL-5 EC50 (moDC): 6.13 ng/mL
  NKT IL-13 EC50 (moDC): 9.82 ng/mL
  NKT TNF EC50 (moDC): 4.3 ng/mL
Human CD1d on cells [5]
  NKT IL-4 EC50 (moDC): 0.58 ng/mL
  NKT IL-13 EC50 (moDC): 3.84 ng/mL
Human CD1d on cells [6]
  NKT IFN-γ EC50 (THP-1): 6.4 ng/mL
  NKT IL-4 EC50 (THP-1): 2.66 ng/mL
  NKT IL-5 EC50 (THP-1): 4.5 ng/mL
  NKT IL-13 EC50 (THP-1): 7.78 ng/mL
  NKT TNF EC50 (THP-1): 4.14 ng/mL
Human CD1d on cells [7]
  NKT IFN-γ EC50 (moDC): 2.8 ng/mL
  NKT IL-4 EC50 (moDC): 0.432 ng/mL
  NKT IL-5 EC50 (moDC): 0.704 ng/mL
  NKT IL-13 EC50 (moDC): 0.598 ng/mL
Human CD1d on cells [8]
  fold improvement against 401.11 (IFN-γ, moDC): ~4.8 fold
  fold potency against antibody 42 (C24:1 βGluCer): ≤ 216 fold
  fold potency against antibody 51.1 (C24:1 βGluCer): ≤ 175 fold
Human CD1d/β2M [9]
  EC50 (read off the curve): ~8 ng/mL
Mouse CD1d
  binding result: no binding
mCD1dhu
  EC50 (read off the curve): ~100 ng/mL
